Test results published in the DeepSol protein solubility set.

Experiment: soluble on expression in E. coli; label from the status in PepcDB or PDB records

Sequence | soluble on expression in E. coli
MSLNASPQEDAGPEPVVYLVDDQQAELDLLQRWCSQEGLKTETFNQAEDLLKLLHADSHGCVVADLRMPRLSGLELQAEMSRRELTIPVILVTGHGDAENCRAAFQQGVFDFIEKGFRHEEILHAINSAIRKHRRDRFRHQVRKEALDLLRKISPRETEVMLLLAGGSPLKGIAQELSISVQTASKHRGSIFTKLNIDNEVDLYKMLLAAEVNLDVGEGHHHHHH | soluble
MSLNCERVWLNVTPATLRSDLADYGLLEPHALGVHEGRIHALVPMQDLKGPYPAHWQDMKGKLVTPGLIDCHTHLIFAGSRAEEFELRQKGVPYAEIARKGGGIISTVRATRAASEDQLFELALPRVKSLIREGVTTVEIKSGYGLTLEDELKMLRVARRLGEALPIRVKTTLLAAHAVPPEYRDDPDSWVETICQEIIPAAAEAGLADAVDVFCEHIGFSLAQTEQVYLAADQYGLAVKGHMDQLSNLGGSTLAANFGALSVDHLEYLDPEGIQALAHRGVVATLLPTAFYFLKETKLPPVVALRKAGVPMAVSSDINPGTAPIVSLRMAMNMACTLFGLTPVEAMAGVTRHAARALGEQEQLGQLRVGMLADFLVWNCGHPAELSYLIGVDQLVSRVVNGEETLHGEGHHHHHH | soluble
MSLNDGRLEIFQEGKPGRRIDEDQVFAAVLDALTKPAEQRTVTVAFREIPPPITAANLDQLGITTLIGVGRSDFTGSAAYRVTNIQAGMRLLHGVLIAPGEEFSFNQTIGRIDRSNGFVEGYAIIQNRTQLEWGGGICQDSTTMFRAAFWAGLPITERWGHSFYISWYDRYAFGPYGDGPGMDATIFTGGPDLKFLNDTGGWLLIQTLVDTHRHLAEVRLYGPDTGRKVLLEGPIITNRTEGHHHHHH | not soluble
MSLNEKEINYEEVMAKIDPENGIQVEIPRGANTDDIANILREHGVIKYPFWFKFVSKFNGYDGRYKSGKHIVNKDLKYKEIMEILCSNPVTTTVTIIEGKNTDQIADILSEKKVIDKEAFLEACNTEKFDYEFLKDIPENPQRENKLEGYLFPDTYFFDPKAGERAIIEKFLDNFDAKFKPEFYERAKELNMTVDEVIILASIIERETALPEERPIVSSVFHNRLKSSDPNLKKLESCATVQYVLYKTQGKMKEKLSDEDTKIDHPYNTYLYEGLPPGPICCPGLASIEAALYPDEESEYLYFVAKGDGSHEFSRTLAEHLEAVKKYQSNEGHHHHHH | soluble
MSLNEPVMNKKHFADNNFEEFQRIIRAKLENFKDRIELIEELLSKYHPTRLKEYTKDGIIYSKQCEFYNFLVGMNEAPFICNRKDLYLKEKMHGGVKEVYFANKHGKILNDDLSEKYFSAIEISEYAPKSQSDLFDKINALDSEFIFMHAYSPKNSQVLKDKLAFTSRRIIISGGSKEQGMTLGCLSELVGNGDITLGSYGNSLVLFADSFEKMKQSVKECVSSLNAKGFLANAATFSMENYFFAKHCSFITLPFIFDVTSNNFADFIAMRAMSFDGKEDNNAWGNSVMTLKSEINSPFYLNFHMPTDEGHHHHHH | not soluble
MSLNGIGSYEYCGRRISMQDSILVGNNFFGDASSLFGIFDGHGGDYGSCFISKEIQKSLEKLRGRALTKEVFENEIISAIQNINTLMEQNNMTDGATSVIVASTKTHYLIANIGDSRAIIIRRTETSPIPMKDIDDETQQTLRPKSPSKLVLPKKTLKGKLGWSGAGSSKTTNQIEVNFDYIGGGRIEVEALTHDHKPSYQEDRQRIRESGNYISDQEKVNGYISVTRAIGDVKCKAFVSCIPEFSEVARRSSDCFVICACDGVWDVFSNEEIGNLVMANEQMNCTELAKLIVDIAYCRLSSDNISCIVFNCQDSEGHHHHHH | soluble
MSLNGSSIIEFEDMTWSQQVEDSKKPVVVMFYSPACPYCKAMEPYFEEYAKEYGSSAVFGRINIATNPWTAEKYGVQGTPTFKFFCHGRPVWEQVGQIYPSILKNAVRDMLQHGEECIRKSTPVGQDITGYVEGHHHHHH | soluble
MSLNIAKIVREAREQSRLTTLDFATGIFDEFIQLHGDRSFRDDGAVVGGIGWLGDQAVTVVGIQKGKSLQDNLKRNFGQPHPEGYRKALRLMKQAEKFGRPVVTFINTAGAYPGVGAEERGQGEAIARNLMEMSDLKVPIIAIIIGEGGSGGALALAVADRVWMLENSIYAILSPEGFASILWKDGTRAMEAAELMKITSHELLEMDVVDKVISEVGLSSKELIKSVKKELQTELARLSQKPLEELLEERYQRFRKYEGHHHHHH | soluble
MSLNIETKKVAVEEISAAIANAQTLVVAEYRGISVSSMTELRANARKEGVYLRVLKNTLARRAVQGTSFAELADQMVGPLVYAASEDAVAAAKVLHQFAKKDDKIVVKAGSYNGEVMNAAQVAELASIPSREELLSKLLFVMQAPVSGFARGLAALAEKKAGEEAA | not soluble
MSLNIKDEHIDSVCSLLDQLVGNVSFKNLFTGYGLFHKEETMFAIWQNKKLYLRGEGVLAIQLTKLGCEPFTTNELNKRFVLSQYYALSDQILRSNRLCRKLIILSIKQILEQKLECTLRKLNRLKDLPNLTIKHERALIKVGITNVAMLREIGAENALVELKKSGSGATLDFYWKLVCALQNKNSQMLSQAEKERLLKKLNEVWRKNGLKGYRKLDDEEGHHHHHH | soluble
MSLNIKKAAELSGIKTDNIRYYERIGLIPKITRTESGIRNFTEANIRTLKFVKHMRDAGVQVEPLTRYMALVNEGNPETKEERIEILKNQVEQLRTEIIEKQSALDYLTFKIENYDEVMLPNEINLNQSSKETIKEGHHHHHH | soluble
MSLNIVTLISWDFKRNNESFQRAIINGYDYWSRILDDHGVEKYVILLTCNRVELYYRGDPFDVQEKGYNIISDDMAINHLFHVAAGLDSMSIGENEVLKQVKQAYEKSSSMGKSDKFLSLIFQRAISVGKLVRSKTGIGKGKVSIPSIVYDIVRKNGGNKILLVGNGMLASEIAPYFSYPQYKVTVAGRNIDHVRAFAEKYEYEYVLINDIDSLIKNNDVIITATSSKTPIVEERSLMPGKLFIDLGNPPNIERGNNVITLDEIYEISKKNEMLREEKINQAEILIENEMKATMNKIKDLMIDDIFSQFYRFASVVQTMEIQKFRKMHPEVNENDLEALAHSIINKILNVPVTTLKAVSRSQGNSDFNRLFESFSSNFNDIVSAALQSYEGLRDTQSLRDRTRQLLQKSEGHHHHHH | soluble
MSLNLNLIFKEQTLKFNKEEQETYLFLQQHNSDWANIFKEMILQGRDKVTQRLVTSMHRENLVKARTQSKKILSRDLIMLDISTTHILEIQFPQAKQTLYAPITGEHAFDRIDVEGPFYIKDDITNTITRVHHPNEILECILIEAPDLKNAASDQFQQDLINSATNMTFAISYQALSMQHDSAPLFNIIENSEDSYLRSEQAVIEGHPLHPGAKLRKGLNALQTFLYSSEFNQPIKLKIVLIHSKLSRTMSLSKDYDTTVHQLFPDLIKQLENEFTPKFNFNDYHIMIVHPWQLDDVLHSDYQAEVDKELIIEAKHTLDYYAGLSFRTLVPKYPAMSPHIKLSTNVHITGEIRTLSEQTTHNGPLMTRILNDILEKDVIFKSYASTIIDEVAGIHFYNEQDEADYQTERSEQLGTLFRKNIYQMIPQEVTPLIPSSLVATYPFNNESPIVTLIKRYQSAASLSDFESSAKSWVETYSKALLGLVIPLVTKYGIALEAHLQNAIATFRKDGLLDTMYIRDFEGLRIDKAQLNEMGYSTSHFHEKSRILTDSKTSVFNKAFYSTVQNHLGELILTISKASNDSNLERHMWYIVRDVLDNIFDQLVLSTHKSNQVNENRINEIKDTMFAPFIDYKCVTTMRLEDEAHHYTYIKVNNPLYRENNEGHHHHHH | soluble
MSLNLVSEQLLAANGLKHQDLFAILGQLAERRLDYGDLYFQSSYHESWVLEDRIIKDGSYNIDQGVGVRAISGEKTGFAYADQISLLALEQSAQAARTIVRDSGDGKVQTLGAVEHSPLYTSVDPLQSMSREEKLDILRRVDKVAREADKRVQEVTASLSGVYELILVAATDGTLAADVRPLVRLSVSVLVEEDGKRERGASGGGGRFGYEFFLADLDGEVRADAWAKEAVRMALVNLSAVAAPAGTMPVVLGAGWPGVLLHEAVGHGLEGDFNRRGTSVFSGQVGELVASELCTVVDDGTMVDRRGSVAIDDEGTPGQYNVLIENGILKGYMQDKLNARLMGMTPTGNGRRESYAHLPMPRMTNTYMLPGKSTPQEIIESVEYGIYAPNFGGGQVDITSGKFVFSTSEAYLIENGKVTKPVKGATLIGSGIETMQQISMVGNDLKLDNGVGVCGKEGQSLPVGVGQPTLKVDNLTVGGTA | soluble
